Holding throughout (assay type): biochemical
The nature of assay [1]: 4-HPPD inhibitor decomposition activity by HPLC, substrate BBC-OH. The conditions noted are these: for BBC-OH decomposition activity: cell-free synthesized protein, FeCl2, ascorbic acid, 2-oxoglutarate, 30° C. for 3 hours, HPLC. The text has this: (§1) Then, the decomposition reaction of a 4-HPPD inhibitor was examined in the presence of divalent iron ions, 2-oxoglutarate, and molecular oxygen in a test tube by a method described later using the HIS1 protein prepared by this cell-free protein synthesis system.
(§2) Here, in commercially-available wheat germ extracts, dithiothreitol (DTT) is used as a reducing agent and a protein synthesizing reaction liquid also contains DTT. It was confirmed in advance by liquid chromatography that under the coexistence of divalent iron ions and ascorbic acid, which is a stabilizer for the divalent iron ions, DTT generated radical compounds and secondarily affected the enzyme reaction of HIS1 proteins. For this reason, in the present Example, an unreported protein synthesizing reaction system using Tris (2-carboxyethyl) phosphine (TCEP) as a reducing agent instead of DTT was newly constructed, with which the synthesis of HIS1 proteins and the like was conducted to examine the 4-HPPD inhibitor decomposition activity of these. The decomposition activity was analyzed on the reaction liquid of the protein and the 4-HPPD inhibitor using a high-performance liquid chromatography (mobile phase; 0.5% acetic acid water:acetonitrile=65:35, flow rate; 1 mL/min, feeding; isocratic, column; CAPCELL PAK ADME S5).
Then, the amounts of the synthesized proteins obtained in Examples 1 to 4 as described above were estimated as described below, followed by the analysis on the 4-HPPD inhibitor decomposition activities.
Cell-free protein synthesis was conducted without adding [^14C]-Leucine Leucine under the same conditions as those in the estimation of the synthesized amount to estimate the protein concentration of this translation reaction liquid from the above-described estimation. Then, 100 μl of the translation reaction liquid was subjected to buffer exchange to a basic translation buffer (30 mM HEPES-KOH (pH=7.8), 100 mM KOAc) by using the illustra MicroSpin G-25 column (manufactured by GE Healthcare). The amounts of the solution before and after the buffer exchange were measured and the estimated protein concentration was corrected.
An enzyme reaction liquid was prepared by mixing 250 mM of HEPES-KOH (pH 7.0) with a mixture liquid, which contained 0.25 mM of FeCl2, 1.5 mM of ascorbic acid, 1.5 mM of 2-oxoglutarate, and 0.75 mM of a substrate, and a translation reaction liquid, which contained a synthesized enzyme protein, in a proportion of 40% and 60%, respectively. After incubation at 30° C. for 3 hours, 100% methanol in the same amount as the enzyme reaction liquid was added and sufficiently mixed, followed by being left to stand for 5 minutes on ice. This was subjected to centrifuge separation (20, 400 g, 20 minutes, 4° C.) and the supernatant was passed through Cosmonice Filter W (0.45 μm) (manufactured by Nacalai Tesque, Inc.) to obtain a sample for high-performance liquid chromatography. The analysis on the substrate and the product before and after the enzyme reaction was conducted by loading a column_Pro C18 (150×4.6 mm I.D.) (manufactured by YMC Co., Ltd.) on a high-performance liquid chromatography device_ELITE LaChrom L-2000 series (manufactured by Hitachi, Ltd.). Elution was conducted at a flow speed of 1 mL/min and a column temperature of 40° C. under solvent conditions of acetonitrile:water (1% acetic acid)=55:45 or 50:50 (BBC-OH), acetonitrile:water (1% acetic acid)=45:55 (Sulcotrione), acetonitrile:water (1% acetic acid)=45:55 (Mesotrione), acetonitrile:water (1% acetic acid)=55:45 or 50:50 (tefryltrone), and acetonitrile:water (1% acetic acid)=55:45 or 50:50 (Tembotrione), respectively, and the compound was detected at an ultraviolet wavelength of 286 nm.
(§3) Note that the 5-point scale of the decomposition activity in each of FIGS. 12 to 17 is based on a relative value of the degree of decrease in a substrate-derived peak area detected by HPLC where the degree of decrease in the HIS1 protein was designated by 5. […]

Assay [2] in a line: 4-HPPD inhibitor decomposition activity by HPLC, substrate tefuryltrione.
Source text: as §1
as §2, with “S5). […]” for “S5).”
(§4) Cell-free protein synthesis was conducted without adding [^14C]-Leucine Leucine under the same conditions as those in the estimation of the synthesized amount to estimate the protein concentration of this translation reaction liquid from the above-described estimation. […] The amounts of the solution before and after the buffer exchange were measured and the estimated protein concentration was corrected. […]
as §3

The nature of assay [3]: 4-HPPD inhibitor decomposition activity by HPLC, substrate sulcotrione.
Source text: as §1
as §2, with “S5). […]” for “S5).”
as §4, §3

The mark [4] stands for this setting: cell-free synthesized protein, FeCl2, ascorbic acid, 2-oxoglutarate, 30° C. for 3 hours, HPLC.

B1: SbHSL1 protein: sorghum-derived HSL protein, typically a protein having an amino acid sequence of SEQ ID NO: 22 (protein)
chain: MAGESWKVPTPVKDLAALVEEPPSQFVQREEDRPGSLMLAADMPDPLPIVDLDKMSTADEATKLRSALQTWGLFLATNHGIDVSLMEDLMKASREFFNQPLQERQKYSNLREGTRFQLEGYGSDPVIAQDHILDWSDRLQLKVEPEDERNLAQWPKHPESFRDLLHEYATKTKTVMVKILRAMAKTLELDEEDFIDQIGGRPQAYARFNYYPPCPRPELVLGIKAHSDGPLLTVLLVDREVGGLQIQRENKWFNVPSIPHALVINLGDSLEIMSNGIFKSPVHRVVTNAEKERISLAMLYAVQRDNVLEPAPGLLDEKRPAKYRRITEAHFLEGVKEHFSKGMRMIETLKI
modifications: Sorghum bicolor
With B1, the BBC-OH decomposition activity entry in assay [1] is “had the decomposition activity, which was less effective than that of the HIS1 protein”.

B2: ZmHSL2 protein: corn-derived HSL protein, typically a protein having an amino acid sequence of SEQ ID NO: 20 (protein)
chain: MAVESWTVPTPVKDLAALVDEPPSRFVQREEHRPGSLMLAADMPDPLPIVDLNKLSTADEAAKLRSALQTWGLFLATNHGIDASLMEDLMEASREFFHQPLQERQKYSNLREGTRFQLEGYGSDPVVAQDHILDWNDRLQLKVEPEDERSLAQWPKYPESFRDLLHEYASKTKSMRDRILRAMAKILELDEEEFIKQLGASPQAYARFNYYPPCPRPELVLGIKAHSDGPVLTVLLVDREVGGLQVQRENTWFNVPFVPHTLVINLGDSLEIMSNGIFKSPVHRVVTNAEKERISLAMLYAVERDNVLQPAAGLLDEKRPARYRRITEADFLEGVKEHFSKGIRMIETLKI
modifications: Zea mays
On to B2, for which the BBC-OH decomposition activity entry in assay [1] is “had the decomposition activity, which was less effective than that of the HIS1 protein”.

B3: HIS1 protein: rice 2-oxoglutarate-dependent dioxygenase, typically a protein having an amino acid sequence of SEQ ID NO: 2 (protein, listed as Oryza sativa)
chain: MADESWRAPAIVQELAAAGVEEPPSRYLLREKDRSDVKLVAAELPEPLPVVDLSRLDGAEEATKLRVALQNWGFFLLTNHGVEASLMDSVMNLSREFFNQPIERKQKFSNLIDGKNFQIQGYGTDRVVTQDQILDWSDRLHLRVEPKEEQDLAFWPDHPESFRDVLNKYASGTKRIRDDIIQAMAKLLELDEDYFLDRLNEAPAFARFNYYPPCPRPDLVFGIRPHSDGTLLTILLVDKDVSGLQVQRDGKWSNVEATPHTLLINLGDTMEVMCNGIFRSPVHRVVTNAEKERISLAMLYSVNDEKDIEPAAGLLDENRPARYRKVSVEEFRAGIFGKFSRGERYIDSLRI
With B3, the tefuryltrione decomposition activity entry in assay [2] (setting [4]) is given as “high decomposition activity”. Moreover, in assay [2] (mass analysis), the “modification product of tefuryltrione by mass analysis” value is listed as “converted into a product with one oxygen atom added”. Besides, the BBC-OH decomposition activity entry in assay [1] is reported as “high decomposition activity”. For the same molecule, the “modification product of BBC-OH by mass analysis” value in assay [1] (mass analysis) was “converted into a product with one oxygen atom added”. The “cofactor dependence of the modification of BBC-OH” value in assay [1] (not shown) was “only in the presence of divalent iron ions and 2-oxoglutarate”. Moreover, in assay [3] (setting [4]), the sulcotrione decomposition activity result is given as “high decomposition activity”. Also, the “modification product of sulcotrione by mass analysis” value in assay [3] (mass analysis) was “converted into a product with one oxygen atom added”.

B4: OsHSL2 protein: rice-derived HSL protein, typically a protein having an amino acid sequence of SEQ ID NO: 6 (protein, listed as Oryza sativa)
chain: MADEPWRLPNIVQELAAGVQEPPSRYLQDLAGGDQLAGAEIPEPIPTIDLGRLSGSDGADEAAKLRSALQNWGLFLVSNHGVETSLIDAVIEAAREFFRQPVEEKKKLSNLIDGKRFQIEGYGNDPVQTKDQILDWSDRLHLKVEPECDRNLAFWPTHPKSFRDILHEYTLKIKTVKNDILLALAKLLELDEDCLLNQFSDRAITTARFNYYSPCPRPDLVLGLKPHSDLCALTVLLTDKEVGGLQVLRDGTWYSVPAVRDYSLLINIGVTLEIMTNGTFRAPLHRVVTNAERERMSVAMFYAVDGEKEIEPVAELLGLKQQSARYRGIKGKDLLIGHYEHFSRGGRVVDSLKI
Turning to B4, the BBC-OH decomposition activity result in assay [1] was “only very weak decomposition activity”.

For the origin of these results see patent publication US12644128B2, “Method for producing HSL protein having catalytic activity for 2-oxoglutaric acid-dependently oxidizing 4-HPPD inhibitor” (National Agriculture and Food Research Organization, priority 2017, dated 2026).
